Data: publication PMC4231051

B1: BglA (β-glucosidase A) (Paenibacillus polymyxa; T231K) (protein)
chain: TIFQFPQDFMWGTATAAYQIEGAYQEDGRGLSIWDTFAHTPGKVFNGDNGNVACDSYHRYEEDIRLMKELGIRTYRFSVSWPRIFPNGDGEVNQEGLDYYHRVVDLLNDNGIEPFCTLYHWDLPQALQDAGGWGNRRTIQAFVQFAETMFREFHGKIQHWLTFNEPWCIAFLSNMLGVHAPGLTNLQTAIDVGHHLLVAHGLSVRRFRELGTSGQIGIAPNVSWAVPYSKSEEDKAACARTISLHSDWFLQPIYQGSYPQFLVDWFAEQGATVPIQDGDMDIIGEPIDMIGINYYSMSVNRFNPEAGFLQSEEINMGLPVTDIGWPVESRGLYEVLHYLQKYGNIDIYITENGACINDEVVNGKVQDDRRISYMQQHLVQVHRTIHDGLHVKGYMAWSLLDNFEWAEGYNMRFGMIHVDFRTQVRTPKESYYWYRNVVSNNWLETRR
B2: BglA (β-glucosidase A) (Paenibacillus polymyxa; E96R) (protein)
chain: TIFQFPQDFMWGTATAAYQIEGAYQEDGRGLSIWDTFAHTPGKVFNGDNGNVACDSYHRYEEDIRLMKELGIRTYRFSVSWPRIFPNGDGEVNQRGLDYYHRVVDLLNDNGIEPFCTLYHWDLPQALQDAGGWGNRRTIQAFVQFAETMFREFHGKIQHWLTFNEPWCIAFLSNMLGVHAPGLTNLQTAIDVGHHLLVAHGLSVRRFRELGTSGQIGIAPNVSWAVPYSTSEEDKAACARTISLHSDWFLQPIYQGSYPQFLVDWFAEQGATVPIQDGDMDIIGEPIDMIGINYYSMSVNRFNPEAGFLQSEEINMGLPVTDIGWPVESRGLYEVLHYLQKYGNIDIYITENGACINDEVVNGKVQDDRRISYMQQHLVQVHRTIHDGLHVKGYMAWSLLDNFEWAEGYNMRFGMIHVDFRTQVRTPKESYYWYRNVVSNNWLETRR
B3: BglA (β-glucosidase A) (Paenibacillus polymyxa; Q216R) (protein)
chain: TIFQFPQDFMWGTATAAYQIEGAYQEDGRGLSIWDTFAHTPGKVFNGDNGNVACDSYHRYEEDIRLMKELGIRTYRFSVSWPRIFPNGDGEVNQEGLDYYHRVVDLLNDNGIEPFCTLYHWDLPQALQDAGGWGNRRTIQAFVQFAETMFREFHGKIQHWLTFNEPWCIAFLSNMLGVHAPGLTNLQTAIDVGHHLLVAHGLSVRRFRELGTSGRIGIAPNVSWAVPYSTSEEDKAACARTISLHSDWFLQPIYQGSYPQFLVDWFAEQGATVPIQDGDMDIIGEPIDMIGINYYSMSVNRFNPEAGFLQSEEINMGLPVTDIGWPVESRGLYEVLHYLQKYGNIDIYITENGACINDEVVNGKVQDDRRISYMQQHLVQVHRTIHDGLHVKGYMAWSLLDNFEWAEGYNMRFGMIHVDFRTQVRTPKESYYWYRNVVSNNWLETRR
B4: BglA (β-glucosidase A) (Paenibacillus polymyxa) (protein)
chain: TIFQFPQDFMWGTATAAYQIEGAYQEDGRGLSIWDTFAHTPGKVFNGDNGNVACDSYHRYEEDIRLMKELGIRTYRFSVSWPRIFPNGDGEVNQEGLDYYHRVVDLLNDNGIEPFCTLYHWDLPQALQDAGGWGNRRTIQAFVQFAETMFREFHGKIQHWLTFNEPWCIAFLSNMLGVHAPGLTNLQTAIDVGHHLLVAHGLSVRRFRELGTSGQIGIAPNVSWAVPYSTSEEDKAACARTISLHSDWFLQPIYQGSYPQFLVDWFAEQGATVPIQDGDMDIIGEPIDMIGINYYSMSVNRFNPEAGFLQSEEINMGLPVTDIGWPVESRGLYEVLHYLQKYGNIDIYITENGACINDEVVNGKVQDDRRISYMQQHLVQVHRTIHDGLHVKGYMAWSLLDNFEWAEGYNMRFGMIHVDFRTQVRTPKESYYWYRNVVSNNWLETRR
B5: BglA (β-glucosidase A) (Paenibacillus polymyxa; E96K) (protein)
chain: TIFQFPQDFMWGTATAAYQIEGAYQEDGRGLSIWDTFAHTPGKVFNGDNGNVACDSYHRYEEDIRLMKELGIRTYRFSVSWPRIFPNGDGEVNQKGLDYYHRVVDLLNDNGIEPFCTLYHWDLPQALQDAGGWGNRRTIQAFVQFAETMFREFHGKIQHWLTFNEPWCIAFLSNMLGVHAPGLTNLQTAIDVGHHLLVAHGLSVRRFRELGTSGQIGIAPNVSWAVPYSTSEEDKAACARTISLHSDWFLQPIYQGSYPQFLVDWFAEQGATVPIQDGDMDIIGEPIDMIGINYYSMSVNRFNPEAGFLQSEEINMGLPVTDIGWPVESRGLYEVLHYLQKYGNIDIYITENGACINDEVVNGKVQDDRRISYMQQHLVQVHRTIHDGLHVKGYMAWSLLDNFEWAEGYNMRFGMIHVDFRTQVRTPKESYYWYRNVVSNNWLETRR

What follows are proteins tested on O=[N+]([O-])c1ccc(O[C@@H]2O[C@H](CO)[C@@H](O)[C@H](O)[C@H]2O)cc1 (assay: purified protein). Conditions: 50 mM citrate phosphate buffer, pH 7.0, 37 °C, 5.5 min, 0.02-3 mM pNPG.

Protein	Km [µM]	kcat [s⁻¹]	kcat/Km [M⁻¹ s⁻¹]
B1	610 ± 70	36.3	59300
B2	470 ± 20	21.2	44800
B3	460 ± 0	26	56900
B4	1210 ± 30	44.7	36900
B5	190 ± 10	28.4	149000
